No end group written: not given here.
How the values were obtained:
Ube2D3 [1] = biological target: T1, Ube2D3 (Homo sapiens, UniProt P61077); test: E2~Ub thioester formation assay, Ube2D3; format: biochemical; conditions: immunoblot
T1 construct: 6xHis (C); made in house; host or cells: E. coli Rosetta 2 (DE3) pLacI
Description: (§1) E2˜Ub thioester formation assays were performed at 25° C. using 0.25 μM E1, 3 μM E2, 12 μM Ub, and 50 mM HEPES, pH 8.0, initiated with addition of 1 mM Mg-ATP. When included, 30 μM AtMUB3 was pre-incubated for 15 min at 25° C. Reactions were terminated by the addition of non-reducing or reducing Laemmli buffer. Protein samples were visualized and analyzed as described, above, and quantified using Fuji Film Multi-Gauge software. Relative inhibition efficiency (RIE) was determined by comparing the inhibition efficiency of AtMUB3 mutants to wild type as follows; RIE=[1−(E2˜Ub with AtMUB3 mutant/E2)]/[1−(E2˜Ub with WT AtMUB3/E2)].
To test whether the differences between plant and animal LBLs influence their activity, the inventors compared them in reciprocal inhibition experiments. […] Taken together, MUB inhibition of E2Ub formation is conserved and broadly relevant to organisms that use the ubiquitylation system.

[2] = biological target: T2, AtUBC8C85S with Ub linked to the active site through an oxyester bond (Arabidopsis thaliana, UniProt P35131, C85S); test: FLAG pull-down assay with FLAG-AtMUB3; format: binding; conditions: immunoblot
T2 construct: His; made in house; host or cells: E. coli Rosetta 2 (DE3) pLacI
T2 sequence (P35131 whole entry C85S): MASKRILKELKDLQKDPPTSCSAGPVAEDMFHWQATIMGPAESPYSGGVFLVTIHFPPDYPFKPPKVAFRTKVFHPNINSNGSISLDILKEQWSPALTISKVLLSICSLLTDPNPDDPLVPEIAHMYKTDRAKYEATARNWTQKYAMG
Description: (§2) GST-tagged AtUBC8 was induced as described above, and the soluble extract fraction was immobilized on GSH resin (Thermo Scientific) for 20 min, followed by three washes with sonication buffer. Equi-molar His-tagged AtMUB3, AtMUB3 mutants and Ub were incubated separately with AtUBC8 loaded GSH resin for 15 min, washed three times using sonication buffer, and boiled in Laemmli buffer. MUB recovery was determined by immunoblotting and chemiluminescent detection using Fujifilm LAS4000 imaging. For FLAG pull-down assay, His-tagged AtUBC8C85S—O-Ub was generated (Sakata et al., 2010). Flag-tagged AtMUB3 was immobilized on FLAG resin (Thermo Scientific) for 20 min, followed by three washes with sonication buffer. AtUBC8C85S—O-Ub protein or Ub were incubated separately with AtMUB3 loaded FLAG resin for 15 min, washed three times using sonication buffer, and boiled in Laemmli buffer.

AtUBC8 [3] = biological target: T3, AtUBC8 (Arabidopsis thaliana, UniProt P35131); test: Isothermal titration calorimetry; format: binding; conditions: ITC, 8 μM AtUBC8, 110 μM AtMUB3 titrant, 25 mM HEPES pH 7.5, 200 mM NaCl
T3 construct: 6xHis; made in house; host or cells: E. coli Rosetta 2 (DE3) pLacI
T3 sequence (P35131 whole entry): as the sequence (P35131 whole entry C85S) above, with S85C counted along it
Description: FIG. 13. AtMUB binds AtUBC8 with submicromolar dissociation constant Kd as measured by isothermal titration calorimetry. Isothermal titration calorimetry (ITC) was performed on 8 μM AtUBC8 with 110 μM AtMUB3 as the titrant using a MicroCal iTC200 (GE). Proteins were purified as described for crystallization and dialyzed extensively against a buffer containing 25 mM HEPES, pH 7.5, 200 mM NaCl, 1 mM TCEP. Data was processed with MicroCal Origin 7 software, and normalized against the dialysis buffer's heat of dilution. This plot is representative of 3 independent experiments, which yielded similar results but were performed at different concentrations of NaCl.

AtUBC8 [4] = biological target: T3, AtUBC8; test: GST pull-down assay with GST-AtUBC8; format: binding; conditions: immunoblot
Description: as §2

AtUBC8 [5] = biological target: T3, AtUBC8; test: E2~Ub thioester formation assay (immunoblot), AtUBC8; format: biochemical; conditions: for inhibition of AtUBC8~Ub thioester formation: MUB protein 30 μM pre-incubated 15 min, 3 μM E2, immunoblot
Description: E2 Thioester Formation Assays.
as §1
Lap-Bar Peptide Inhibition Assay.
Lap-Bar custom peptide ([…] SEQ ID NO: 1, Sigma-Aldrich and Peptide 2.0 Inc.), three scrambled peptides ([…] SEQ ID NO: 4, […] SEQ ID NO: 49, […] SEQ ID NO: 50, Peptide 2.0 Inc.) and amino acid controls were dissolved in 50 mM Tris-HCl, pH 7.5, 300 mM NaCl, and 10% Glycerol.

AtUBC28 = biological target: T4, AtUBC28 (Arabidopsis thaliana, UniProt Q94F47); test: E2~Ub thioester formation assay, AtUBC28; format: biochemical; conditions: group VI E2, AtMUB3 30 μM
T4 construct: 6xHis (N); made in house; host or cells: E. coli Rosetta 2 (DE3) pLacI
T4 sequence (Q94F47 whole entry): as the sequence (P35131 whole entry C85S) above, with A41S, E42D, I78V, S85C, A136S, N140S counted along it
Description: as §1
(§3) To assess whether MUB binding regulates E2 function, E2˜Ub thioester formation assays were performed on AtUBC8. […] AtUBC8-Ub peptide linkages, which could complicate the analysis, were observed by 10 minutes, so three minute reactions were used in subsequent assays. Ser22 on the so-called backside binding site (BBS) of AtUBC8 is distant from the active site Cys85, and was previously determined to interfere with MUB-induced E2 localization to the PM (Dowil et al., 2011). E2Ub formation on AtUBC8 Ser22Arg was unaffected by AtMUB3, supporting the requirement of a direct interaction for inhibition (FIG. 1C). Since MUBs interact specifically with Arabidopsis group VI E2s, two additional subfamily members, AtUBC10 and AtUBC28 were tested. […]

AtUBC8~Ub = biological target: T5, AtUBC8~Ub (Arabidopsis thaliana, UniProt P35131); test: E2~Ub thioester discharge assay; format: biochemical; conditions: 30 μM MUB, 100 mM lysine
T5 construct: 6xHis; made in house; host or cells: E. coli Rosetta 2 (DE3) pLacI
T5 sequence (P35131 whole entry): as the sequence (P35131 whole entry C85S) above, with S85C counted along it
Description: FIG. 11. […] AtUBC8˜Ub discharging assay is exposed to AtMUB3. The quantification is presented in line graph, top panel (+/−SEM and n=3 for all data points), while the immunoblot (IB) of triple parallel experiments is shown in bottom panel.
AtUBC8 (3 μM) was charged by incubating with 0.25 μM E1, 50 mM HEPES, pH 8.0, 1 mM Mg-ATP and 12 μM K0Ub for 3 min. The E1 was inactivated for 90 seconds with 50×E1 stop buffer (BostonBiochem). Lysine (100 mM) was added to the reaction with or without 30 μM MUB to initiate Ub leaving from the E2 active site.

AtUBC4 = biological target: T6, AtUBC4 (Arabidopsis thaliana, UniProt P42748); test: E2~Ub thioester formation assay, AtUBC4; format: biochemical; conditions: group IV E2, AtMUB3 30 μM
T6 construct: 6xHis (N); made in house; host or cells: E. coli Rosetta 2 (DE3) pLacI
T6 sequence (P42748 1-187): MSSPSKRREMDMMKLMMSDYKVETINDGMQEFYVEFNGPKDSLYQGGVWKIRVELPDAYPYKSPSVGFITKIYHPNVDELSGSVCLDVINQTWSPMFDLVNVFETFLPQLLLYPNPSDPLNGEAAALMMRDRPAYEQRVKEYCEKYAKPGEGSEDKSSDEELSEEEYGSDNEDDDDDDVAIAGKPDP
Description: as §1, §3

AtUBC8 Ser22Arg = biological target: T7, AtUBC8 Ser22Arg (Arabidopsis thaliana, UniProt P35131, S22R); test: E2~Ub thioester formation assay, AtUBC8 Ser22Arg; format: biochemical; conditions: AtMUB3 30 μM, three minute reaction
T7 construct: 6xHis (C); made in house; host or cells: E. coli Rosetta 2 (DE3) pLacI
T7 sequence (P35131 whole entry S22R): as the sequence (P35131 whole entry C85S) above, with S22R, S85C counted along it
Description: as §1, §3

AtUBC10 = biological target: T8, AtUBC10 (Arabidopsis thaliana, UniProt P35133); test: E2~Ub thioester formation assay, AtUBC10; format: biochemical; conditions: group VI E2, AtMUB3 30 μM
T8 construct: 6xHis (N); made in house; host or cells: E. coli Rosetta 2 (DE3) pLacI
T8 sequence (P35133 whole entry): as the sequence (P35131 whole entry C85S) above, with A41S, S46A, S85C, R131K, A132N, A136S, N140S counted along it
Description: as §1, §3

AtUBC36 = biological target: T9, AtUBC36 (Arabidopsis thaliana, UniProt Q9FZ48); test: E2~Ub thioester formation assay, AtUBC36; format: biochemical; conditions: group XV E2, AtMUB3 30 μM
T9 construct: 6xHis (N); made in house; host or cells: E. coli Rosetta 2 (DE3) pLacI
T9 sequence (Q9FZ48 1-153): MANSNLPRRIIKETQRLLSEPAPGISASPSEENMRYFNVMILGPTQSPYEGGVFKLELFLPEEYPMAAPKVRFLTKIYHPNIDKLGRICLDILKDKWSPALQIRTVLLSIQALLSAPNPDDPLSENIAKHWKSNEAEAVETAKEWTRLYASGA
Description: as §1, §3

Ube2D3 [6] = biological target: T1, Ube2D3; test: HTRF-FRET E2 activation assay; format: biochemical
Description: FIG. 12. Ube2D3 Activation. Using HTRF-FRET, Ube2D3 activation was monitored with indicated concentrations of HsMUB to establish an inhibition curve. The initial velocity was linear over the first 10 minutes and is represented as percent E2 activated, with 100% velocity taken in the absence of MUB and 0% in the absence of ATP. Plot represents three independent assays+s.e.m., fit to the one-site binding equation. An additional three assays fit to the Hill equation with coefficient n produced nearly identical results with n1.
HTRF-FRET E2 activation assays were conducted using reagents adapted from the E1/E2 Lite kit (LifeSensors, Malvern, Pa.). […] Assays were read kinetically using a BioTek Synergy 4 plate reader equipped with Excitation 340/30 nm, Emission1 495/10 nm, Emission2 520/25 nm bandpass filters, a 400 nm dichroic mirror, and a Xenon flash lamp set to read Terbium and Fluorescein emission with a 100 μs time delay and 200 μs data collection time. The corrected FRET ratio was calculated as described in the TR-FRET manual (Molecular Devices): [(Em520/Em490)−(P*Em490))/Em490]*10000, where P=Em520/Em490 with terbium only, a proportionality factor to correct for terbium donor contribution to acceptor emission. The linear slope of the first 10 minutes of the reaction was determined as the initial velocity. […]

T1 sequence (P61077 whole entry): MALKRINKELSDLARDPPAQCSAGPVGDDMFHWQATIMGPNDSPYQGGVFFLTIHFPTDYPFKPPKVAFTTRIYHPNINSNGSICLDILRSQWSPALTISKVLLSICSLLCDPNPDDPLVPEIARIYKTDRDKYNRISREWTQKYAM

## AtMUB3: Arabidopsis thaliana Membrane-anchored Ubiquitin-fold protein 3, recombinant, His-tagged (VGQCKTPFGDIAGGVIVMHVV; also: His tag; listed as Arabidopsis thaliana)
Ube2D3 [1]
  inhibition of Ube2D3~Ub formation: does not inhibit
[2]
  pull-down of AtUBC8C85S-O-Ub: can pull-down
AtUBC8 [3]
  dissociation constant Kd: submicromolar
AtUBC8 [4]
  binding to GST-AtUBC8 in pull-down: efficient bait
AtUBC8 [5]
  inhibition of AtUBC8~Ub thioester formation: strongly reduced
AtUBC28
  inhibition of AtUBC28 activation: strongly inhibited
AtUBC8~Ub
  Ub discharge from AtUBC8~Ub: increase Ub discharging
AtUBC8~Ub; listed as MUB
  Ub discharge from AtUBC8~Ub: slightly faster
AtUBC4
  inhibition of AtUBC4 activation: unaffected
AtUBC8 Ser22Arg
  inhibition of E2~Ub formation on AtUBC8 Ser22Arg: unaffected
AtUBC10
  inhibition of AtUBC10 activation: strongly inhibited
AtUBC36
  inhibition of AtUBC36 activation: unaffected

## LKLPFGKT [minimal human LBL, human MUB Lap Bar Loop eight-residue peptide]
AtUBC8 [5]; peptide 5 mM, 3 μM AtUBC8
  inhibition of AtUBC8~Ub formation by peptides: potent inhibitory activity

B1: AtMUB3 F77A (protein, UniProt Q9SW27 1-115, looked up, variant F77A)
Membrane-anchored …: MPEEESIDIKFRLYDGSDIGPFRYSAASTVDFLKQRVVSDWPKGKTVVPKGINEVKLISSGKILENNKTVGQCKTPAGDIAGGVIVMHVVVQPSLAKSKTEKKVDKAPKAVICTC
AtUBC8 [5]
  inhibition of AtUBC8~Ub thioester formation: strong loss of inhibition

B2: HsMUB: human version of MUB, aka Ubl3, SEQ ID NO: 2 (protein, listed as Homo sapiens)
chain: MSSNVPADMINLRLILVSGKTKEFLFSPNDSASDIAKHVYDNWPMDWEEEQVSSPNILRLIYQGRFLHGNVTLGALKLPFGKTTVMHLVARETLPEPNSQGQRNREKTGESNCCVIL
Ube2D3 [1]
  inhibition of Ube2D3~Ub formation: potent inhibition
AtUBC8 [5]
  inhibition of AtUBC8~Ub thioester formation: potent inhibition
Ube2D3 [6]
  maximal inhibition of Ube2D3 activation: up to 70%

Reference: patent US10829757B2, “MUB motif is an inhibitor of E2-ubiquitin thioester formation” (Saint Louis University, priority 2016, dated 2020)
